This is an account of results in patent US20150182631A1, “SYSTEM FOR […]-BASED ACTIVE INGREDIENTS” (Centre National De La Recherche Scientifique-CNRS, priority 2012, published 2015).

Common to all, as to type: physicochemical
Series [1] in a line: FRET kinetics of subunit exchange (tetramer dissociation). As to the method:
The speed of the exchange of subunits was measured by the same technique. The reaction is initiated by mixing the same volume of XCL-RITC (1 μM) and of XCL-FITC (1 μM) at 25° C. in 50 mM of phosphate buffer, 100 mM NaCl, pH 8.5. The excitation is carried out at 468 nm and the fluorescence emission at 580 nm is recorded every 0.5 seconds. The fluorescence intensity is normalised by using the equation: […]
where F(t) represents the experimental fluorescence in the time considered, F0 the value of the initial fluorescence, and F∞ the value of the final fluorescence when the state of equilibrium is reached. The kinetic data was modelled with the GOSA software (Czaplicki et al. (2006)). The best model was obtained for a double exponential of equation:
F=1−[a×e^−k^1^t+(1−a)×e^−k^2^t]
where: a represents the proportion of molecules at slow dissociation, k1 the kinetic constant of the slow dissociation and k2 the kinetic constant of the fast dissociation.
The dissociation kinetic of the tetramer was studied by mixing XCL-FITC and XCL-RITC and by measuring the fluorescence emission intensity at 580 nm as a function of time (FIG. 6).
The increase in the fluorescence intensity and therefore the effectiveness of the transfer between the fluorescein and the rhodamine are the result of two successive phenomena: firstly the dissociation of the tetramers into dimers and secondly their reassociation. Considering the shape of the curve (FIG. 6), no lag time is observed at the beginning of the kinetics which implies that the speed of reassociation is much faster than the speed of dissociation. It can therefore be considered that the speed of reassociation is negligible in this case. The kinetic data obtained was modelled using the GOSA software. The most suitable model for describing the phenomenon observed is a double exponential growth with two dissociation reactions that have difference speeds: […]

The nature of series [2]: Chemical dissociation by size exclusion chromatography at acidic pH. As to the method:
(§1) The size exclusion chromatography experiments were carried out on a GE-Healthcare Superose 12 PC 3.2/30 column. The columns are pre-balanced in the buffer tested, namely phosphate buffer 50 mM, 100 mM NaCl, pH7.2 or pH 4.4 in the absence or in the presence of 0.003% of SDS. The flow rate is 0.5 mL/min. The BSA and the RNase A are used as a size marker.
The inventors studied the behaviour of XCL in denaturing chemical conditions close to those encountered in the lysosomes. The analysis was carried out via exclusion chromatography with an acidic pH (pH 4.4). It appears that the elution peak of XCL in these denaturing conditions is displaced to greater elution volumes showing the appearance of a smaller size. When 0.003% SDS is added, the elution peak is displaced to the elution volume of the RNAse A which has a molecular weight close to the XCL monomer.
The behaviour of the oxidised mutant A38C was also analysed. […] The addition of the disulphide bridge therefore increases the stability of the protein assembly.
(SEC sorts molecules by how far they enter the pores of the column.)

Series [3] in a line: Balanced FRET, exchange of monomers. The settings on record: 1 h incubation, pH 8.5. As for the experimental part:
Fluorescence energy transfer was used to reveal the exchange of the XCL monomers. The exchange reaction is initiated by mixing the same volume of XCL-RITC (1 μM or only the buffer as a reference) and of XCL-FITC (1 μM) at 25° C. in 50 mM of phosphate buffer, 100 mM NaCl, pH 8.5. After one hour of incubation, the emission spectrum of the sample excited at 490 nm is recorded by spectrofluorimetry (Photon Technology International QM-4). The same experiments were carried out with A38C-RITC and A38C-FITC.
The oligomerization balance of the XCL protein was characterised by the measurement of the appearance of resonance energy transfer of the Förster type (FRET) between two populations of XCL labelled separately either with FITC (Fluorescein IsoThioCyanate) or with RITC (Rhodamine IsoThioCyanate).
In this same figure, is also shown the spectrum obtained by mixing the labelled protein, either by the donor or by the acceptor (dotted line curve). This spectrum was deconvoluted, which gives the spectra shown as a dotted line in FIG. 2A.
For the purposes of comparison, the same experiment was carried out with the variant A38C. This variant is covalently bonded by two additional disulphide bridges. A perfectly superimposable spectrum was obtained after mixing donor and acceptor labelled proteins and incubation of this mixture for 1 h at ambient temperature (dotted lines of FIG. 3B).

Series [4] is described as follows: SDS-PAGE of tetramer and disulphide bridge stability. To be noted: 2% of SDS, not heated before deposit. As to the method:
The clone A38C was obtained by directed mutagenesis by using the XCL plasmid as a matrix and the protein produced and purified by using the same protocol as that used to produce XCL (Trigueros et al. (2003)). A yield of 25 mg of purified protein per litre of culture was obtained. The last part of the protocol consisted in a step of oxidation for 12 hours in the presence of 10 mM of oxidised glutathione. This step is required in order to produce disulphide bridges between the monomers. The forming of these covalent bonds was verified by SDS-PAGE. Two SDS-PAGE were prepared. Beta-mercaptoethanol was added to the samples in the first gel while beta-mercaptoethanol was not added to the second gel. When XCL is heated to 95° C. 5 min before the deposit, a single band is observed with a molecular weight slightly greater than 20 kDa on the two gels. This band corresponds to the species in monomer form.
A variant T12C was produced in the same manner as A38C by directed mutagenesis by using the XCL plasmid as a matrix. By using the same protocol, 10 mg of protein per litre of culture were produced. The oxidation rate of the variant T12C was sought by using the same method by SDS-PAGE as for A38C. These rates were compared with those obtained with the variant A38C. Several oxidative conditions were tested with different concentrations of reduced glutathione. […]

Series [5] is described as follows: Size exclusion chromatography at variable concentration, tetramer equilibrium. As to the method:
as §1
In order to confirm the data obtained in FRET, the displacement of the balance was evaluated by gel exclusion chromatography. Bovine Serum Albumin (BSA) and ribonuclease A were used to calibrate the column. Elution volumes of 12.6 ml and of 15.5 ml were obtained respectively. At a strong concentration (here 30 μM), XCL has an elution volume of 13.2 ml close to the elution volume of BSA as expected for tetrameric species. […] However, it was shown by digital simulation that according to the association rate, the rate of dissociation, the flow rate and separation characteristics of the column, two populations of molecules that are exchanging could lead to a single peak via size exclusion chromatography (Yu et al., (2006)). The inventors carried out several injections by using variable concentrations of XCL and observed that indeed a single peak was obtained. However this peak is displaced to longer elution volumes as the concentration decreases, indicating a smaller molecular weight.

The mark [6] stands for this setting: 25° C., pH 8.5, double exponential model.

B1: XCL: Xerocomus chrysenteron lectin, fungal sporocarp lectin forming a tetramer with central cavity, SEQ ID NO: 1 (protein)
chain: MSYSITLRVYQTNRDRGYFSIVEKTVWHFANGGTWSEANGAHTLTQGGSGTSGVLRFLSTKGERITVAVGVHNYKRWCDVVTGLKPDETALVINPQYYNNGGRDYVREKQLAEYSVTSAIGTKVEVVYTVAEGNNLEANVIFS
modifications: Xerocomus chrysenteron
With B1, in series [1] (setting [6]), the “a: proportion of molecules engaged in the slow reaction” value came out at 0.39, the “k1: kinetic constant of the slowest dissociation reaction” value came out at 0.72 min⁻¹ and the “k2: kinetic constant of the fastest dissociation reaction” value came to 2.52 min⁻¹. Further, the “time until balance of fluorescence intensity at 580 nm is reached” value in series [1] (mixing XCL-FITC and XCL-RITC) is listed as “more than 300 seconds”. In addition, the “oligomeric state by elution volume at pH 4.4 with SDS” value in series [2] (pH 4.4, 0.003% SDS) is listed as “these dimers are dissociated into monomers”. For the same molecule, in series [2] (pH 4.4, no SDS), the “oligomeric state by elution volume at pH 4.4” value is “dissociation of the tetramer into a dimer”. For the same molecule, the “FRET between FITC- and RITC-labelled protein after mixing (monomer redistribution)” value in series [3] was “monomers have been redistributed”. Further, the “oligomeric form on SDS-PAGE” value in series [4] is listed as “remained in tetrameric form”. Also, the “concentration of the transition in elution volume” value in series [5] is recorded as “close to the micromolar”.
